Consider 5 molecules from publication PMC3817407.

“And” between values parts separate entries of the source, which are not always exact repeats. Identical values can stand only once.

B1: AS03_1244 (protein)
chain: MKQFDPDVNIRPKEDSIRHYSVPDDYFASFTDKLMAQIPAVKEENTVVVPSVALWPKLRPLLYLAASFLLMIGMFKAFSLFGVGSDTGRTTSTSAGLVALDHGDTRWSEDTDYRDFLHDNCAETVSDEWVLTDFSE
B2: AS01_3473 (protein)
chain: MSNYDNAELLALWLEGKLTPKQRDEFEQRCIQDSQFAEQVDAAAMVKIGADDYSSSEVPQWNKAATFEPQQANNSGSWLSGVSLVTSALAIVLVLTGTQVTTSEGELRIRFGSGQSEQALVKLVDSKLDAFKQNQQDAFTLYAQTLQQQQSESASQLTNYLLSSSRKERREDFAELIKFVNQQRSDDQLFYARQLNQLQQDVYHDATGVALESIQQ
B3: AS04_1609 (protein)
chain: MNRTTEQRNAEVMKTIGLLDQMPRVEVDHLFRVRLMQRIEAMEVKKTSWSALPGGAFNPRLAFMALLLMLNIASALMLFMHGTPQATGSSGAIAESLTEDYGGPALSYYDDQTTIDR
B4: AS11_987 (protein)
chain: MNKHPDNNLLEAYASGSIDAVSGLVVATHLETCSKCRAYVNQVEASQANTVSESPSEYSPEFDDMLNDIINAEPVNDNVVIQDTAFVNVAGKSFELPKTLVRFSDLVGSWRSYGGKVFSAQIDLGEDARVSLMYIGENVQIPQHTHRGLESTLVLHGGFSDEDGQYEEGDLMVRDASVKHSPFTQEGEDCLCLTVLTEPMIFTQGVARIFNLFGKGLYP
B5: AS03_1198 (protein)
chain: MDKDFDFDNIGKRTPYRTPDNFFEETQRKILERTVDEQRKKRRLKRIIPTVIAVAAVLAGILFTPSLRYMNTDTPSASNILAVDKNNVTTDPVDKWIKELSDEELEELVSFSENDIFLN

One assay has as its target ECF26_4464.
As to B1, the fold repression worked out at 2.21.

Turning to B2, the fold repression is 2.22.

Take B3: the fold repression was found to be 6.23.

Take B4: the fold repression was determined as 2.97.

Take B5: the fold repression turned out to be 1.48.

The target of another assay is T1, ECF11_987.
T1 chain: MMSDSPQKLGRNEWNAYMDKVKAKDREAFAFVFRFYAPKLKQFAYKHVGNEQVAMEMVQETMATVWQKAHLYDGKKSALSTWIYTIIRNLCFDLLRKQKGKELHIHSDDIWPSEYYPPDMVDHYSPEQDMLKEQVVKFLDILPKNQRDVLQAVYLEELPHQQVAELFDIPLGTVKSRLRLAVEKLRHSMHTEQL
Consider B1, for which the fold repression amounted to 2.14.

Turning to B2, the fold repression came to 1.52.

In the case of B3, the fold repression was found to be 6.21.

For B4, the fold repression amounted to 77.4.

Turning to B5, the fold repression worked out at 1.61.

The next assay deals with T2, ECF20_992.
T2 chain: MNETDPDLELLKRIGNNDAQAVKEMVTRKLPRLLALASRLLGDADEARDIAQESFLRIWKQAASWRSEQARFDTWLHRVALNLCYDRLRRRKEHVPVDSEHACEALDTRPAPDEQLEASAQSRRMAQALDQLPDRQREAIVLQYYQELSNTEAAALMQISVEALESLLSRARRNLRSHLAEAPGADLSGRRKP
In the case of B1, the fold repression was found to be 1.93.

As to B2, the fold repression is 2.52.

Turning to B3, the fold repression was determined as 7.41.

In the case of B4, the fold repression came out at 3.26.

B5: the fold repression was 0.888.

A further assay has as its target T3, ECF35_3582.
T3 chain: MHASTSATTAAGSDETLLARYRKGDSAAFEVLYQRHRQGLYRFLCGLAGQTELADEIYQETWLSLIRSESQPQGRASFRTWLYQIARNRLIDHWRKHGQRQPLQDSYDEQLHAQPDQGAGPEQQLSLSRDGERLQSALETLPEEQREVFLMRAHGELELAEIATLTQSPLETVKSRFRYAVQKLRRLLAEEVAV
Regarding B1, the fold repression worked out at 1.37.

Turning to B2, the fold repression turned out to be 1.49.

For the molecule B3, the fold repression is 3.24.

For B4, the fold repression came to 1.71.

Turning to B5, the fold repression came to 1.05.

Another assay deals with T4, ECF14_1324.
T4 chain: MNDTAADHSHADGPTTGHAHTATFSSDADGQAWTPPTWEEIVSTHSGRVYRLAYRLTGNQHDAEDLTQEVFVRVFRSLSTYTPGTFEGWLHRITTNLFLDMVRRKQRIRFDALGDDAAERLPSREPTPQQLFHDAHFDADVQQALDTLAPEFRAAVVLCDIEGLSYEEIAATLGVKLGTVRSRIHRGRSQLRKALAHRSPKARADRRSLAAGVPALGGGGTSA
Consider B1, for which the fold repression amounted to 2.35.

Take B2: the fold repression amounted to 2.61.

For B3, the fold repression worked out at 8.02.

Take B4: the fold repression came out at 3.15.

Regarding B5, the fold repression worked out at 0.798.

In a further assay the target is T5, ECF17_1691.
T5 chain: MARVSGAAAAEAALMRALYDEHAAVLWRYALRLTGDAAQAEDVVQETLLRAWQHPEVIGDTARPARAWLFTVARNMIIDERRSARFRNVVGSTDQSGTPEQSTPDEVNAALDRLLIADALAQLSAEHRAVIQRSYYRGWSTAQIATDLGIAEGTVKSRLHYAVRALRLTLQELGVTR
B1: the fold repression turned out to be 1.44.

B2: the fold repression came to 1.97.

Turning to B3, the fold repression came to 1.22.

As to B4, the fold repression came to 2.68.

B5: the fold repression turned out to be 0.986.

The target of the next assay is T6, ECF31_34.
T6 chain: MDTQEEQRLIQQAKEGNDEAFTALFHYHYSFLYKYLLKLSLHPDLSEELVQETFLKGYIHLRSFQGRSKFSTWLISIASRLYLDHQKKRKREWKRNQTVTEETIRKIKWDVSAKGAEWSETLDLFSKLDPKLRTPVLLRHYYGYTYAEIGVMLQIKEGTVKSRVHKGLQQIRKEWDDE
For the molecule B1, the fold repression stood at 1.92.

For the molecule B2, the fold repression was determined as 1.97.

As for B3, the fold repression turned out to be 3.92.

As to B4, the fold repression came to 2.53.

Turning to B5, the fold repression was 1.12.

The target in another assay is T7, ECF22_4450.
T7 chain: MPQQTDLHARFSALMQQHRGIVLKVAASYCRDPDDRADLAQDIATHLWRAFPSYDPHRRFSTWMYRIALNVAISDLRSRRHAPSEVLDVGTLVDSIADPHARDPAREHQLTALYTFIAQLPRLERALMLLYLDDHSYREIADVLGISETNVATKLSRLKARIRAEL
For the molecule B1, the fold repression is 2.49.

For B2, the fold repression stood at 1.97.

As to B3, the fold repression is 9.53.

Take B4: the fold repression is 5.44.

With B5, the fold repression is 1.2.

The target of the next assay is T8, ECF17_1458.
T8 chain: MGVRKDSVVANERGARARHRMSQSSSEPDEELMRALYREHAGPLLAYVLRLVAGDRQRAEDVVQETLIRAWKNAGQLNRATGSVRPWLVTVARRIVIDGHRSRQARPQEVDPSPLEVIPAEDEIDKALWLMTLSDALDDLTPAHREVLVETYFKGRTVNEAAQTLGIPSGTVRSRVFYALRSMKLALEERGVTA
Regarding B1, the fold repression was found to be 1.62.

With B2, the fold repression stood at 1.83.

As to B3, the fold repression came out at 3.13.

Take B4: the fold repression worked out at 2.13.

Consider B5, for which the fold repression was found to be 0.894.

The target in another assay is T9, ECF01_3473.
T9 chain: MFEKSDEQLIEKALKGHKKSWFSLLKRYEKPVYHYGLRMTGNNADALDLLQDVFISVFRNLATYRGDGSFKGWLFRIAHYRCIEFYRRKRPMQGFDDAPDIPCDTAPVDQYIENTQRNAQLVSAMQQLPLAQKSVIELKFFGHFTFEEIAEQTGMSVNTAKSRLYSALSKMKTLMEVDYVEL
For the molecule B1, the fold repression was determined as 2.13.

For B2, the fold repression stood at 13.

As for B3, the fold repression was found to be 4.75.

On to B4, for which the fold repression stood at 4.16.

As for B5, the fold repression came to 2.38.

A further assay deals with T10, ECF12_807.
T10 chain: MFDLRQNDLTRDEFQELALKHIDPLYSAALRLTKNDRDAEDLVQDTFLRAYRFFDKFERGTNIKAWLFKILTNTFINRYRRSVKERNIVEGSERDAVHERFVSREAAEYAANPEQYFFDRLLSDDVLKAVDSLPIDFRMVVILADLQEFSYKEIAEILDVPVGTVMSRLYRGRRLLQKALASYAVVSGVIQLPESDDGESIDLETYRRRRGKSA
For the molecule B1, the fold repression was found to be 3.08.

For the molecule B2, the fold repression came out at 3.57.

As to B3, the fold repression came to 5.09.

Regarding B4, the fold repression came out at 4.25.

Regarding B5, the fold repression is 1.43.

In another assay the target is T11, ECF02_915.
T11 chain: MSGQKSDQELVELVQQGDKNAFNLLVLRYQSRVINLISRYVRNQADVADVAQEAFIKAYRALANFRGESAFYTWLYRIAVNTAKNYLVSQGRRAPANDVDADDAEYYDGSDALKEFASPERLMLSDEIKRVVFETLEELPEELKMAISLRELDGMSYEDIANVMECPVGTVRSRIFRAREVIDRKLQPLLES
As for B1, the fold repression was 2.

Turning to B2, the fold repression was found to be 2.34.

As for B3, the fold repression is 2.99.

Take B4: the fold repression came out at 3.1.

B5: the fold repression is 2.43.

The target in a further assay is T12, ECF22_1147.
T12 chain: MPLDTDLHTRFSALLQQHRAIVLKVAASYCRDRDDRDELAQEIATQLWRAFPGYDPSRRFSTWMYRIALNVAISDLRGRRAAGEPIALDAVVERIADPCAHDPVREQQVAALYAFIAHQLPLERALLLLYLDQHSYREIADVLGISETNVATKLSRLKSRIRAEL
For the molecule B1, the fold repression is 2.3.

As for B2, the fold repression amounted to 3.4.

With B3, the fold repression is 5.37.

In the case of B4, the fold repression was found to be 2.64.

Turning to B5, the fold repression turned out to be 1.28.

Another assay has as its target T13, ECF25_1643.
T13 chain: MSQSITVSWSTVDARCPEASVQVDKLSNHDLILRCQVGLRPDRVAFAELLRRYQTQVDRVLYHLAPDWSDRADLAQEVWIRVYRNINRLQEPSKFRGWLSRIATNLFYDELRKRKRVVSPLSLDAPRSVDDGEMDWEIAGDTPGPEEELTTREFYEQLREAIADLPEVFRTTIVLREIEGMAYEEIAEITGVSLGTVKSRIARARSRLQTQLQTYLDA
For B1, the fold repression is 1.23 and 1.24.

On to B2, for which the fold repression was 1.37 and 1.13.

As to B3, the fold repression was 1.05 and 1.18.

In the case of B4, the fold repression is 2.1 and 1.71.

For the molecule B5, the fold repression is 0.95 and 0.944.

The next assay concerns the target T14, ECF15_436.
T14 chain: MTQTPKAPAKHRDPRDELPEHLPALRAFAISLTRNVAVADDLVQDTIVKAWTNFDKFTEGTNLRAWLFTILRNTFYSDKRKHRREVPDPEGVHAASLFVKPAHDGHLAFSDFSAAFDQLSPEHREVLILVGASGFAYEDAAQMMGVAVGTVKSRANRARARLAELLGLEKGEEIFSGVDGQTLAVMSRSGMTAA
On to B1, for which the fold repression turned out to be 2.04.

Regarding B2, the fold repression was 1.94.

Take B3: the fold repression was found to be 5.75.

B4: the fold repression amounted to 3.32.

For the molecule B5, the fold repression came to 1.11.
